# Data published in PMC4844702, “Selective inhibition of the kinase DYRK1A by targeting its folding process” (Nature Communications, 2016).
# Molecular target: CDC37 (UniProt Q16543)
# Assay: anti-FLAG plate capture, CDC37-nanoKAZ luminescence
# Conditions: reference: wild type
fold change (sites S97),Substance,other results
54,DYRK1A (from UniProt Q13627) K188R kinase-dead,
,DYRK1A (from UniProt Q13627) Y319F/Y321F,"fold change (sites Y319,Y321): 6.2"
2.2,DYRK1A (from UniProt Q13627) S97A,
,DYRK1A (from UniProt Q13627) Y321F,fold change (sites Y321): 5.2
